1 molecule from patent publication US20130280318A1, “Tissue Scaffolds for Controlled Release of Active Agents” (The Trustees of Columbia University in the City of New York, priority 2010, published 2013) can be followed below.

The test system of the test is Chondrocytes. Nature of the test: Chondrocyte growth on scaffolds (total DNA, Picogreen). It is filed as cell-based, bovine. Particulars: TGF-β3 released from tissue scaffold. On the procedure: Chondrocytes enzymatically digested from bovine calves (6×10^4 cells/cm^2) were cultured on scaffolds in serum-free ITS+ media. Experimental group included PLGA-TGFβ3 scaffolds, while cells cultured on PLGA and on PLGA with exogenous TGF-β3 (1 ng/mL) served as controls. Viability was evaluated with confocal microscopy (n=3).
Total DNA (n=6) was quantified by Picogreen Assay. Glycosaminoglycan (GAG) and collagen syntheses (n=6) were assessed by dimethylmethylene blue (DMMB) and Sircol assays, respectively. Gene expressions (Col I, II, and X) were analyzed by RT-PCR (n=4).

B1: transforming growth factor-beta 3 (protein, UniProt P10600 301-412, looked up)
Transforming growth factor …: ALDTNYCFRNLEENCCVRPLYIDFRQDLGWKWVHEPKGYYANFCSGPCPYLRSADTTHSTVLGLYNTLNPEASASPCCVPQDLEPLTILYYVGRTPKVEQLSNMVVKSCKCS
modifications: Transforming growth factor beta-3
With B1, the “bioactivity of released TGF-β3 (chondrocyte proliferation and biosynthesis)” value is on record as “bioactive”.
